How the values were obtained:
Rep WT [1] = target: T1, Rep WT (Escherichia coli, UniProt P09980 1-673); assay: SPR; no nucleotide, 5 mM Mg2+; kon 1.22e7 M-1 s-1, koff 5.91e-3 s-1; SPR: 25 mM Tris-HCl pH 7.6, 50 mM NaCl, 5 mM MgCl2, 0.25 mM DTT, 0.2 mM EDTA, 0.005% P20, 20 C; single-molecule: 25 mM Tris-HCl pH 7.9, 10 mM Mg acetate, 50 mM; settings: protein: recombinant; chain copies: 2; single strand
Rep WT [2] = target: T1, Rep WT; assay: SPR; no nucleotide, 5 mM Mg2+; 20 nM Rep; kon 1.03e6 M-1 s-1, koff 2.15e-4 s-1; SPR: 25 mM Tris-HCl pH 7.6, 50 mM NaCl, 5 mM MgCl2, 0.25 mM DTT, 0.2 mM EDTA, 0.005% P20, 20 C; single-molecule: 25 mM Tris-HCl pH 7.9, 10 mM Mg acetate, 50 mM; settings: protein: recombinant; chain copies: 2; single strand
Rep K28A = Rep K28A (Escherichia coli, UniProt P09980 1-673, K28A); assay: SPR; 200 uM ATP, dissociation not stimulated; SPR: 25 mM Tris-HCl pH 7.6, 50 mM NaCl, 5 mM MgCl2, 0.25 mM DTT, 0.2 mM EDTA, 0.005% P20, 20 C; single-molecule: 25 mM Tris-HCl pH 7.9, 10 mM Mg acetate, 50 mM; settings: protein: recombinant; tags: His6; chain copies: 2; single strand

In the case of TTTTTTTTTTTTTTT (ssDNA, 3'-biotin) [3'-bio-dT15], the Kd (Rep WT [1]) is reported as 0.5 nM.

TTTTTTTTTTTTTTTTTTTTTTTTTTTTTTTTTTT (ssDNA, 3'-biotin) [3'-bio-dT35] was tested, and the Kd (Rep WT [2]) was 0.2 nM and the binding result (Rep K28A) was “binds”.

Reference: publication PMC10123100, “Single-molecule visualization of stalled replication-fork rescue by the Escherichia coli Rep helicase”
